Results from patent publication US7250395B2, “Antagonist peptides to VEGF receptor Flt-1” (Beijing Institute for Cancer Research, priority 2001, dated 2007).
Where a chain is given by its changes, count along the chain named. Entries after “also recorded” stand apart in the source; their conditions may differ.

B1: DHFR-F56: fusion protein composed of peptide F56 and dihydrofolate reductase, expressed in E. coli M15 (protein)
chain: MVRPLNCIVAVSQNMGIGKNGDLPWPPLRNEFKYFQRMTTTSSVEGKQNLVIMGRKTWFSIPEKNRPLKDRINIVLSRELKEPPRGAHFLAKSLDDALRLIEQPELASKVDMVWIVGGSSVYQEAMNQPGHLRLFVTRIMQEFESDTFFPEIDLGKYKLLPEYPGVLSEVQEEKGIKYKFEVYEKKWHSDMEWWYLLG
B2: DHFR-F90: fusion protein composed of peptide F90 and dihydrofolate reductase, expressed in E. coli M15 (protein)
chain: B1 chain with S189D, D190P, M191T, E192P, Y195S, L196W, L197E, G198I
B3: dihydrofolate reductase (protein)
chain: MVRPLNCIVAVSQNMGIGKNGDLPWPPLRNEFKYFQRMTTTSSVEGKQNLVIMGRKTWFSIPEKNRPLKDRINIVLSRELKEPPRGAHFLAKSLDDALRLIEQPELASKVDMVWIVGGSSVYQEAMNQPGHLRLFVTRIMQEFESDTFFPEIDLGKYKLLPEYPGVLSEVQEEKGIKYKFEVYEKK
notes: dihydrofolate reductase, negative control protein

What was measured:
[1] = system: human umbilical cord vein-derived endothelial cells (HUVECs); assay: VEGF-stimulated proliferation of HUVECs (3H-TdR incorporation); type: cell-based; settings: 50, 100, 200, 300 μmol/L with VEGF165, 48 hours; FIG. 2
Description: A sample of human umbilical cord (obtained from Beijing Gynecological and Obstetric Hospital) was digested by 0.1% collagenase II (purchased from GIBCO BRL Corporation), and centrifuged at 1000 rpm for 10 minutes to collect the human umbilical cord vein-derived endothelial cells (HUVECs). The cells were suspended in 20% FCS/RPMI 1640 (purchased from GIBCO BRL Corporation), and transferred to a plastic culture flask and cultured in a incubator (37° C., 5% CO2) for 2 days. Then, the cultured HUVECs were digested with 0.04% trypsin-EDTA, and inoculated into a 24-well plate at 3×10^4 cells/well. After 24 hours' incubation, the cells were incubated for another 24 hours in new medium 2% FCS/RPIM 1640. VEGF165 (product of Sigma Corporation) was added either independently or as a mixture with peptide F56 or F90 of different concentrations (50, 100, 200, 300 μmol/L). 4 parallel wells were used for each group. The cells were incubated for 48 hours. Then, ^3H-TdR(1 μci/ml) was added and the cells were incubated for another 8 hours. The cells were collected to a glass-fiber filter membrane. The cpm value was detected according to conventional methods. The same experiment was repeated for 3 times.

[2] = system: chick chorioallantoic membrane blood vessels; assay: Proliferation of blood vessels on chick chorioallantoic membrane; type: in vivo
Description: In this example, a proliferation assay on chick chorioallantoic membrane blood vessels was carried out to detect the inhibition of F56 to angiogenesis.
The experiment was carried out according to a method described by Fu Shengfa et al. (Fu Shengfa, Lu Yinglin and Zhang Chaoshan: Technique of detecting the effects of vascular growth factor with chorioallantoic membrane of fertilized chicken eggs. Chin Mili. Acad. Medi. Scie. 1993, 17:294-97”). Particularly, fresh inseminated chicken eggs were soaked in 0.1% benzalkonium bromide solution for 2 minutes at 38° C., and incubated in an incubator at 37.5° C., 60-70% humidity for 3 days. Then, the eggs were stripped and cultured on a petri dish. When the allantoic membrane grew to about 1cm^2, the different groups (5 chick embryos per group) were treated with the following agents. VEGF165 (2 μg/L), DHFR (negative control) or 18 μl F56 solution (0.8 μg/μl) was dropped onto a glass-fiber filter membrane (Φ5 mm). The membrane was placed on the distal end (in relation to the heart of the embryo) of the chorioallantoic membrane. The agents were administered once in the morning and once in the evening for 2 days. The results were observed and recorded by photography. The experiment was repeated twice (Kodak 100, exposed for 3 s).

[3] = system: human breast cancer cells; assay: Metastasis model of breast cancer in SCID mice; type: in vivo
Description: In order to observe the inhibitory activity of the peptides of the present invention to cancer metastasis, a metastasis model of breast cancer in SCID mice as described by Li Zhihong at al. (Transplant of human breast cancer in nude mice. Natl. Med J Chin. Vol.80 (11), 2000) was used to determine the function of F56. Briefly, human breast cancer cells were inoculated under the fat pad in the breast of SCID mice. Peptide F56 (0.5 mmol/L) was injected topically (60 μl per mouse per time) on the next day and every other day for 10 times in total. After 8 weeks, the mice were put to dead. The tumors were taken out and weighted. The whole lung was taken out, fixed and sliced with maximal cross-section and dyed by HE. The number of metastatic foci was counted.

sFlt-1 = target: T1, sFlt-1 (Homo sapiens, UniProt P17948); assay: ELISA test of binding specificity to soluble receptor sFlt-1; settings: for binding to Flt-1 (in words): ELISA; for ELISA (OD492 nm), SFlt-1: plate coated with sFlt-1 5 mg/L, detection with DHFR-specific monoclonal antibody
T1 construct: made in house
Description: (§1) The specificity of the binding of the fusion proteins DHFR-F56 and DHFR-F90 to receptor Flt-1 was tested by ELISA in the present example.
(§2) Particularly, a 96-well plate was coated with soluble receptors, sFlt-1, sKDR (5 mg/L, 50 μl/well) [Song Shumei, Shou Chengchao: Molecular cloning and its expression of vascular endothelia growth factor receptor KDR. Chin J. Biochem. Mol. Bio. 1998, 14 (1): 57-61; An Ping, Dong Zhewei and Shou Chengchao: Molecular cloning and its bio-activity of soluble VEGF receptor expressed in bacterial. Chin J. Biochem. Mol. Bio. 2000, 16 (1): 62-66]. Alternatively, the vascular endothelial cells in a 96-well plate were fixed by pre-cooled 0.125% glutaraldehyde solution. DHFR, DHFR-F56 or DHFR-F90 was added to the plate after blocking. An ELISA assay was carried out using a DHFR-specific monoclonal antibody according to conventional method. The ELISA assay was repeated for 3 times.

[4] = system: MGC803 cells (a human gastric carcinoma cell line); assay: Tumor inhibition test, MGC803 implanted in Balb/c nude mice; type: in vivo; settings: 150 μg/100 μl intraperitoneally every other day for 10 times; for growth of human gastric carcinoma MGC803 cells in Balb/c nude mice: p<0.05 vs DHFR control
Description: To testify whether DHFR-F56 and DHFR-F90 can inhibit tumor growth on the basis of anti-angiogenesis, a tumor inhibition test on Balb/c nude mice was performed.
MGC803 cells (a human gastric carcinoma cell line) was subcutaneously implanted on the right buttock of eight 5-week aged nude mice (purchased from the Animal Center of the Chinese Academy of Medical Sciences) (2×10^6 cells/0.1 ml/each mouse). On the fifth day after the implantation, the nude mice were grouped at random into […] each of which included 4 mice. DHFR (150 μg/100 μl per time), DHFR-F56 or DHFR-F90 (150 μg/100 μl per time) was injected intraperitoneally every other day for 10 times. […] The major and minor axes of the tumors were measured by vernier caliper every three days during the observation period. The volume of the tumor was calculated according to the formula of ½×major axis×minor axis^2. After the 30 days, the nude mice were put to dead by neck-breaking. The tumors were weighted and analyzed statistically.

[5] = target: T2, soluble receptor of VEGF, Flt-1 (sFlt-1) (Homo sapiens, UniProt P17948); assay: 125I-VEGF competitive binding assay on coated sFlt-1; settings: 1, 5, 10, 15, 20 μg/ml; 125I-VEGF 2 μg/L; FIG. 1
T2 construct: coated overnight at 4° C. by 0.5 mg/L soluble receptor of VEGF, Flt-1 (sFlt-1)
Description: In order to detect the activity of DHFR-F56 blocking VEGF binding to sFlt-1, a binding assay was carried out using ^125I-VEGF (purchased from Life Technology Inc.).
The experiment was carried out according to a method substantially as described by Tanaka, K., et al (Characterization of the extracellular domain in vascular endothelial growth factor receptor-1 (Flt-1 tyrosine kinase). Jpn J Cancer Res. 1997, 88:867-876). Briefly, a 96-well plate was coated overnight at 4° C. by 0.5 mg/L soluble receptor of VEGF, Flt-1 (sFlt-1). The coating solution was 0.01 mol/L phosphate buffer (pH 6.2). Then, the plate was rinsed with a washing solution (0.9% NaCl, 0.01 mol/L, pH6.2) for 3 times. 250 μl blocking buffer (0.3% BSA, 25 mmol/L HEPES, DMEM, pH7.6) was added into each well for 3 hours at room temperature. DHFR-F56 of different concentrations (1, 5, 10, 15, 20 μg/ml) (DHFR of different concentrations for the control group) and ^125I-VEGF (purchased from Life Technology Inc.) of fixed concentration (2 μg/L, […]) were added to the wells. 2 parallel wells were used for each concentration. The binding reaction underwent for 1 hour at room temperature. The plate was rinsed 4 times with the binding buffer. […] The cpm value was determined by a Wallac co liquid-scintillation counter after the solid residue had been dissolved.

[6] = system: vascular endothelial cells; assay: ELISA test of binding to fixed vascular endothelial cells; settings: for binding to endothelial cells (in words): ELISA; for ELISA (OD492 nm), EC: glutaraldehyde-fixed vascular endothelial cells, DHFR-specific monoclonal antibody
Description: as §1, §2

sKDR = target: T3, sKDR (Homo sapiens, UniProt P35968); assay: ELISA test of binding specificity to soluble receptor sKDR; settings: for reaction with KDR (in words): ELISA; for ELISA (OD492 nm), SKDR: plate coated with sKDR 5 mg/L, detection with DHFR-specific monoclonal antibody
T3 construct: made in house
Description: as §1, §2

[7] = on filter membrane, twice daily for 2 days, FIG. 3
[8] = 0.5 mmol/L 60 μl topically, 10 times
[9] = lung, 0.5 mmol/L 60 μl topically, 10 times, after 8 weeks

T3 sequence (P35968 20-764 limits assumed): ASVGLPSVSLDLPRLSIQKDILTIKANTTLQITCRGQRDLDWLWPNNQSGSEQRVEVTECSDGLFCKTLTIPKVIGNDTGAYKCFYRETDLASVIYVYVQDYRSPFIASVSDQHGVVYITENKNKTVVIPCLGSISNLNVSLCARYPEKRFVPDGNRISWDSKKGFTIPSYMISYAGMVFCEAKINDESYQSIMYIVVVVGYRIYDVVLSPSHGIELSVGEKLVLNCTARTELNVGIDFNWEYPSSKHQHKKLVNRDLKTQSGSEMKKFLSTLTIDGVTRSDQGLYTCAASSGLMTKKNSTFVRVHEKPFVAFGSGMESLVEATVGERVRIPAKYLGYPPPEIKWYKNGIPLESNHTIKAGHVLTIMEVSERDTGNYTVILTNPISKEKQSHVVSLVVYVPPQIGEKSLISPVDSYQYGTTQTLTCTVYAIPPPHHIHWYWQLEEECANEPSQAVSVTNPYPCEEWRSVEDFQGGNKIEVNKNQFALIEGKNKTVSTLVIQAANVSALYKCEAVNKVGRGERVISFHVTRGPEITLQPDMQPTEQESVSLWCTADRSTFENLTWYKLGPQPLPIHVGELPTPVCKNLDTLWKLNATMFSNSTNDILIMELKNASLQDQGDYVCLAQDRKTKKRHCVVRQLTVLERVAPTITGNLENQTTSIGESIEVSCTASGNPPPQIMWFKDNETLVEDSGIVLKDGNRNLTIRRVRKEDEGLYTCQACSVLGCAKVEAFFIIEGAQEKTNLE
T1 sequence (P17948 27-758 limits assumed, species assumed): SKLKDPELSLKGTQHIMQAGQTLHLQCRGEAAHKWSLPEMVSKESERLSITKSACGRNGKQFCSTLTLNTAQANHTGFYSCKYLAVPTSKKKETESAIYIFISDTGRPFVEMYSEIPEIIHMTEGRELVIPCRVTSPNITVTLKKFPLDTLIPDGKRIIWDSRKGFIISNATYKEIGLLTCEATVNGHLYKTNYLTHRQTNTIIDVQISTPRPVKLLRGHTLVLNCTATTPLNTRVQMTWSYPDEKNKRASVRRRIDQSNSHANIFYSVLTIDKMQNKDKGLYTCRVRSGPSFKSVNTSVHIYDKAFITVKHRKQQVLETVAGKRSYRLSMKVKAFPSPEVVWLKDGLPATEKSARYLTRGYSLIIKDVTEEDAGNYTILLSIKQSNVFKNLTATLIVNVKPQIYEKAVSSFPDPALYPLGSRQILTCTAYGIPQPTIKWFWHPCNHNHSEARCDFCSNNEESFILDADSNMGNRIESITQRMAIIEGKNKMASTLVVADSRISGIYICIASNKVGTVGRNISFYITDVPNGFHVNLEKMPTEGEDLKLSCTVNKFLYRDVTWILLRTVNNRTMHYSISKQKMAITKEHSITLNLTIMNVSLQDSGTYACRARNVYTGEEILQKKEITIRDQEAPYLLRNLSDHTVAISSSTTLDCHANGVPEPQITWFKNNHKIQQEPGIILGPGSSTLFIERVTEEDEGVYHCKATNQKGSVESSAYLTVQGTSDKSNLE
T2 sequence (P17948 27-758 limits assumed, species assumed): as above

Molecule | inhibition to the proliferation of umbilical cord vein-derived endothelial cells [1] | effect on chick chorioallantoic membrane blood vessels [2, 7] | binding to Flt-1 (in words) (sFlt-1) | ELISA (OD492 nm), SFlt-1 (sFlt-1) | growth of human gastric carcinoma MGC803 cells in Balb/c nude mice [4] | binding of 125I-VEGF to coated sFlt-1 [5] | binding to endothelial cells (in words) [6] | ELISA (OD492 nm), EC [6] | reaction with KDR (in words) (sKDR) | ELISA (OD492 nm), SKDR (sKDR) | further results
H2N-Trp-His-Asp-Pro-Thr-Pro-Trp-Trp-Ser-Trp-Glu-Ile-COOH (H-WHDPTPWWSWEI-OH) [Peptide F90] | no significant inhibition | derangeable in distribution and atrophic |  |  |  |  |  |  |  |  | 
H2N-Trp-His-Ser-Asp-Met-Glu-Trp-Trp-Tyr-Leu-Leu-Gly-COOH (H-WHSDMEWWYLLG-OH) [Peptide F56] | no significant inhibition | rupture of blood vessels and bleeding in addition to blood vessel atrophy; also recorded: derangeable in distribution and atrophic |  |  |  |  |  |  |  |  | cancer metastasis to lung (in words) [3, 8]: significantly inhibit cancer metastasis to lung; tumor growth on the injection sites (in words) [3, 8]: inhibition of tumor growth on the injection sites; Number of metastatic foci in each mouse, mouse 1 [3, 9]: 0; Number of metastatic foci in each mouse, mouse 2 [3, 9]: 0; Number of metastatic foci in each mouse, mouse 3 [3, 9]: 1; Number of metastatic foci in each mouse, mouse 4 [3, 9]: 2; Number of metastatic foci in each mouse, mouse 5 [3, 9]: 2; Mean number of metastatic foci ([3]; lung, 5 mice, after 8 weeks): 1.0; Total number of metastatic foci ([3]; lung, 5 mice, after 8 weeks): 5; Metastasis inhibition (%) ([3]; lung, versus solvent, after 8 weeks): 70.5%
VEGF [reference compound] |  |  |  |  |  |  |  |  |  |  | effect on chick chorioallantoic membrane blood vessels ([2]; in vivo): can promote the proliferation; also recorded: stimulated the blood vessels to proliferate significantly
B1 |  |  | can bind | 0.529 | can inhibit the growth | decreases along with the increase of the concentration of DHFR-F56 | can bind | 0.477 | no notable reaction | 0.081 | necrosis of tumor ([4]; FIG. 4): result in necrosis of tumor
B2 |  |  | can bind | 0.415 | can inhibit the growth |  | can bind | 0.384 | no notable reaction | 0.074 | 
B3 |  | no notable effect | no reaction | 0.088 |  | no notable effect | no reaction | 0.080 | no reaction | 0.074 | 
